{"source": "the DeepSol protein solubility set"}
{"test": "soluble on expression in E. coli; label from the status in PepcDB or PDB records"}
{"sequence": "MKVNKALTIAGSDSGGGAGIQADLKTFQELGVYGMTAITAITAQNTLGVQGVYPVSLEGITEQLNSIGTDLTPDAVKIGMLFSSEIIQIVAEYINKFGWNNIVLDPVMIAKGGASLLQQEAVQALKEYLLPVATVITPNVPEAEVLTGLEIHNIEDSKEAAKVLHELGAKYVLMKGGHAEYQGNEVIDLLFDGEKFIEFRSERIPSKQTHGSGCTFASAVTAGLAKGYSMEEAVQEAKRFISIAIEEPLHIGSGHGPTNHFAYKMNKAQV", "soluble on expression in E. coli": "not soluble"}
{"sequence": "MKVVAFNGSPRKEGNTASLIKHVLAELDKEGIETEIVQIGGKSVHGCTACSKCFENRDRRCVIDNDIVNECIEKMLEADGIILASPTYFADLTPELKALIDRAGFVAKANSEMFRYKVGAAVVAVRRAGSIHVFDSINHFFTISQMIIPGSSYWNMGIGRAEGDVEKDDEGIRTMQILGQNMAWLLKKLNELEHHHHHH", "soluble on expression in E. coli": "not soluble"}
{"sequence": "MKVVAVGGGTGLSTLLKGLKNIDSFEITAVVSVTDEGGSSGKLRKELNVPPPGDVRNNIVALAKDEDLLAKLMSYRFSEGSFKGHSLGNLIIAALTKIEGSFSEAIRILERVLAIKGRVLPVSEDHARLVARFEDGEEVIGETNIVRKGGKIVEVRLDRPIDALPEVLEAIERADIIIFGPGSLYTSIITNVLVNGVKDAIKKSKAKKIYVCNLMTQPGETTGYRVSDHVKELERYLEQSVDFVLVNTRKPSEEVLERYRKEGSDFVEIDAENIQNTILAEPFLVEIVDPSDGQRKIRHDSVKLADVIERISRW", "soluble on expression in E. coli": "soluble"}
{"sequence": "MKVVVQIKDFDKVPQALRSVINLYNDIKDAEIEVVLHQSAIKALLKDSDTRSIIEDLIKKNILIVGCENSIRSQNLSHDQLIPGIKIVTSGVGEIVRKQSEGWIYLAL", "soluble on expression in E. coli": "soluble"}
{"sequence": "MKVYKDVFTNDEVCSDSYNQEDPFGIADFREIAFEVKSNKRIKGNDDYGIADNSEEAVDGMGADVEQVIDIVDSFQLTSTSLSKKEYSVYIKNYMQKILKYLEEKKPDRVDVFKTKAQPLIKHILTNFDDFEFYMGESLDMDAGLTYSYYKGEEVTPRFVYISDGLYEEKF", "soluble on expression in E. coli": "soluble"}
{"sequence": "MKVYYPGREWPEEYKRVLEKMKEIIDPVTGDNILDSGVVAGLEVKDRTLKVWLRFESQAEYNILGGAAMAYSKIVGDIMEKFALVMFDNVYVYDLRNNIVGVFEKKK", "soluble on expression in E. coli": "soluble"}
{"sequence": "MKYDWILFDADETLFHFDAFKGLQLMFSRKGVDFTEQDFAHYQTVNKPLWVDYQDGKVTADELKHKRFTEWAEKLNTTTADLNSAFLEAMADICS", "soluble on expression in E. coli": "not soluble"}
{"sequence": "MKYKIIVIDVFNTLLNNKYELTEENRNALLYIQKELGIRVVLTSGRTVAALKPLAEELNLREYSGYLIPYHGGQIVNCRSGKVIASHRMATSFVEVLDARARAEGVTLLAFGKDSIFSTDPHDPLAVKESDICGQPLVSKHPRSSEVIKCSFVGEAEKIAELEVVMRRDYGDKLNIFRSSETLLECLPSE", "soluble on expression in E. coli": "not soluble"}
{"sequence": "MKYLLPTAAAGLLLLAAQPAMAMASGGNSDSKTLNSLDKIKQNGVVRIGVFGDKPPFGYVDEKGNNQGYDIALAKRIAKELFGDENKVQFVLVEAANRVEFLKSNKVDIILANFTQTPQRAEQVDFCSPYMKVALGVAVPKDSNITSVEDLKDKTLLLNKGTTADAYFTQNYPNIKTLKYDQNTETFAALMDKRGDALSHDNTLLFAWVKDHPDFKMGIKELGNKDVIAPAVKKGDKELKEFIDNLIIKLGQEQFFHKAYDETLKAHFGDDVKADDVVIEGGKILEHHHHHH", "soluble on expression in E. coli": "soluble"}
{"sequence": "MKYMIGVDIGTTSTKSVLYDENGTFIMKHQIGYDLHTPNVDVSEENPDELFDAVLMTIKYVMRESKVNKDDIKFVSFSAQMHSLIAMDQQHQRLTNNITWADNRAAKYATVINEVHDGNAIYQRTGTPIHPMSPLAKIFWMKHEWQDVFQRTAKFADIKTYIFYHLFDTYIIDYSMASATGMFNLETLDWDVEALELLGISKEMLPELVPTTYVMKGMKERYATLMGLNKDTPFVIGASDGVLSNLGVNSVGKGEVAVTIGTSGAIRTVIDKPRTDYKGRIFCYVLTEDHYVIGGPVNNGGVVLRWLRDELLASEVETAKRLGVDPYDVLTQIAKRVKPGADGLIFHPYLAGERAPLWNANARGSFFGLTLSHKKEHMIRAALEGVLYNLYTVYLALIEVMNETPKMIKATGGFAKSEVWRQMMSDIFDTELVVPESYESSCLGACVLGLKAVGDIEDFSIVSSMVGATNNHTPIEENVTVYQEIVSIFINLSRSLTENYEQIADFQRQHIAENKTQ", "soluble on expression in E. coli": "not soluble"}
{"sequence": "MKYSYVARQPILDREKRTIGYELLFRDGPKNTFPEVEPELATSRLLSDHFLSTHYNTLGNKLGFVNFPHQSLVNLVPTLFPKDSLVIEVLEDCEPTQELLDAIKHLHECGYRIALDDFVPTKAWKRFLPYVSMIKFDIRLVPIEKAAIFIQALSQFNIDFLAEKVETYEEFEQALDAGFNYFQGYFFSKPEMIQKKRLNPAFLTVIQLCKEIADKPIDFNEVERLFSIDVTLSYKLLTYVNSGYTLTTKIKSFRQALIYLGEERLRRFISLVAIASVQEDKPDSLYSLAIQRARMCEILLSQMKTKYDPGQAFLTGMFSLLGSLLDQPLSDVIEDIPVDEDIKLALTSRKGVLGYLLSMCIAYEQADWELAERYCSVLKLTETQLADAFNESTEWAQELLSQTP", "soluble on expression in E. coli": "not soluble"}
{"sequence": "MLAAYRGRVMTRIAVELSLLTFVRSSELRFARWDEFDFDKSLWRIPAKREEIKGVRYSYRGMKMKEEHIVPLSRQAMILLEQLKQISGDKELLFPGDHDATKVMSENTVNSALRAMGYDTKTEVCGHGFRTMARGALGESGLWSEDAIERQLSHSERNSVRAAYIHTSEHLDERRLMVQWWADYLDANKIKPLEHHHHHH", "soluble on expression in E. coli": "not soluble"}
{"sequence": "MLDAFAKVVAQADARGEFLTNAQFDALSNLVKEGNKRLDAVNRITSNASTIVANAARALFAEQPQLIQPGGNAYTNRRMAACLRDMEIILRYVTYAILAGDSSVLDDRCLNGLRETYQALGTPGSSVAVAIQKMKDAAIAIANDPNGITPGDCSALMSEIAGYFDRAAAAVA", "soluble on expression in E. coli": "soluble"}
{"sequence": "MLDFEKPLFEIRNKIDSLKESQEKNEVDLQDEIDMLEASLKRETTKVYTNLKPWDRVQIARLPERPTTLDYIPYIFDSFIELHGDRSFRDDPAMIGGIGYLDGKSVTVIGQQRGKDTKDNIYRNFGMAHPEGYRKALRLMKQAEKFNR", "soluble on expression in E. coli": "not soluble"}
{"sequence": "MLDKNVLNEIGSKVNEILASSPARDVEKNMRAMLTGAFARLDLVTREEFDVQQEVIKRTRIKLAELEEKVRKLEQQLQQPAEVVSSNETGDA", "soluble on expression in E. coli": "not soluble"}
{"sequence": "MLDVPHGKFGFTKGCIIAVILLSLSRTLNRGQLNLERFEFWQPTSQLLALDVCLRDAFALEHHHHHH", "soluble on expression in E. coli": "not soluble"}
{"sequence": "MLEEYEKKRDFNKTSEPPARGEEKNSDKPVFVVQRHDATNLHYDFRLEMDGVLKSWAVPKEPPKSPGTRRLAIETEDHPLGYADFEGEIPEGQYGAGRVEIWDRGTFELLKRNEKEIIITLHGEELEGDYVLIKTKYGKEDKGWLFFKKKTGLEHHHHHH", "soluble on expression in E. coli": "soluble"}
{"sequence": "MLEFEQGFNHLATLKVIGVGGGGNNAVNRMIDHGMNNVEFIAINTDGQALNLSKAESKIQIGEKLTRGLGAGANPEIGKKAAEESREQIEDAIQGADMVFVTSGMGGGTGTGAAPVVAKIAKEMGALTVGVVTRPFSFEGRKRQTQAAAGVEAMKAAVDTLIVIPNDRLLDIVDKSTPMMEAFKEADNVLRQGVQGISDLIAVSGEVNLDFADVKTIMSNQGSALMGIGVSSGENRAVEAAKKAISSPLLETSIVGAQGVLMNITGGESLSLFEAQEAADIVQDAADEDVNMIFGTVINPELQDEIVVTVIATGFDDKPTSHGRKSGSTGFGTSVNTSSNATSKDESFTSNSSNAQATDSVSERTHTTKEDDIPSFIRNREERRSRRTRR", "soluble on expression in E. coli": "not soluble"}
{"sequence": "MLEFQTPELLRMPLQELCLHTKLLAPVNCPIADFLMKAPEPPPALIVRNAVQMLKTIDAMDTWEDLTELGYHLADLPVEPHLGKMVLCAVVLKCLDPILTVACTLAYRDPFVLPTQASQKRAAMLCRKRFTAGAFSDHMALLRAFQAWQKARSDGWERAFCEKNFLSQATMEIIIGMRTQLLGQLRASGFVRARGGGDIRDVNTNSENWAVVKAALVAGMYPNLVHVDRENLVSTGPKEKKVRFHPASVLSQPQYKKIPPANGQAAAIKALPTDWLIYDEMTRAHRIANIRCCSAVTPVTILVFCGPARLASNALQEPSSFRVDGIPNDSSDSEMEDKTTANLAALKLDEWLHFTLEPEAASLLLQLRQKWHSLFLRRMRAPSKPWSQVDEATIRAIIAVLSTEEQSAGLQQPSGIGQRPRPMSSEELPLASSWRSNNSRKSSADTEFSDECTTAERVLMKSPSPALHPPRKYKDRGILHPKRGTEDRSDQSSLKSTDSSSYPSPCASPSPPSSGKGSKSPSPRPNMPVRYFIMKSSNLRNLEISQQKGIWSTTPSNERKLNRAFWESSIVYLVFSVQGSGHFQGFSRMSSEIGREKSQDWGSAGLGGVFKVEWIRKESLPFQFAHHLLNPWNDNKKVQISRDGQELEPQVGEQLLQLWERLPLGEKNTTD", "soluble on expression in E. coli": "soluble"}
{"sequence": "MLEPSHNDELPPIPGKRYFTIGEVSELCAVKPHVLRYWEQEFPQLNPVKRRGNRRYYQRLDVLMIRQIRGLLYDQGFTIGGARLRLTAGEPKDDTQQYKQMIREMIAELEDVLVMLKA", "soluble on expression in E. coli": "not soluble"}
{"sequence": "MLFTKASEYALLSLIYISQKETPQDVDSLALELDIPKSFLAKILQTLAKDGLLKSFKGAKGGFVLIKEPSQYTIKEIVNSAEKKDISVFECSGGTCPNNKEENCTLMPMLVNLQNKVDEFLDSITLEDIMKNNGKK", "soluble on expression in E. coli": "soluble"}
{"sequence": "MLGAIIGDIVGSVYEWNNIKTKDFPLFRKDCFFTDDTVMTCAVAEAIMNGGQKDDFIDAMKKYGRMYPNADYGARFNAWLNSDNREPYNSFGNGSAMRISPCAWIMDCGFYAKTGIWPSSRGLTSLSAEVTHNHPEGVKGAMATADAIFLCRFYFGGYCREYEQSINDNPTECKRRIKDYIEKEYDYNLSQTLDEIRPNYRFNETCQETVPQAIIAFLESRDFEDAIRNAISLGGDSDTLAAITCSIAEAAYGIPDWIKDKAYSYLDEPLKDVVRRWENRIKAYLEHHHHHH", "soluble on expression in E. coli": "soluble"}
{"sequence": "MLGENHALIYEFPDFADHIRHLKKNNTIFATMAQRYHELDHKIRALELTKVPTDDEHFVALKLERLHLKDKLYQYLVHDAI", "soluble on expression in E. coli": "soluble"}
{"sequence": "MLGSSSLSIRTTDDKSLFARTMDFTMEPDSKVIIVPRNYGIRLLEKENVVINNSYAFVGMGSTDITSPVLYDGVNEKGLMGAMLYYATFATYADEPKKGTRGINPVYVISQVLGNCVTVDDVIEKLTSYTLLNEANIILGFAPPLHYTFTDASGESIVIEPDKTGITIHRKTIGVMTNSPGYEWHQTNLRAYIGVTPNPPQDIMMGDLDLTPFGQGAGGLGLPGDFTPSARFLRVAYWKKYTEKAKNETEGVTNLFHILSSVNIPKGVVLTNEGKTDYTIYTSAMCAQSKNYYFKLYDNSRISAVSLMAENLNSQDLITFEWDRKQDIKQLNQVNVMS", "soluble on expression in E. coli": "soluble"}
{"sequence": "MLGVGKIGGAIVKSLLSCGAVVTGTGRRRETLERISRLGAEATVDNRLAAKVSDVVILSVKPYQLPRLLEEIRDVMEGKIVVSVVAGVRLSTLSRALEGSHVYRAMPNINALIGRSTTAVAEYTGDKRASFVESILSCMGSVYWIPEEWMDVWTALVGSMPAYVAVMIDSLTLGGVSAGLPREVAFKAVIDTLGATAEHLGKRDIHPSVLRDEVTTPAGTTIEGLKVIEGEGVDAALIRTVEAAARRAAAIGEAIDNEVRRSLNLRAAALEHHHHHH", "soluble on expression in E. coli": "not soluble"}
{"sequence": "MLHILINFINFGKMFTLGNIMKFKKIYIELSDICGLKCDFCPSQKGIRGVMSEEKFQNLAYEISNKAELFTFHLLGDPLLLPNLENYLKIAKDEAMKLEITTSGFYLNSKNQALLLGYENIHQINISLMSFLSQSKISLEQYFKPILELCKKHLEQKSLSFINLRLWNLDANFKAPKSNLKIYEFLAKEFEAKIDANLSKNRLQRHILLHQNKLFKWPNLKDEPLYKKGKCHALKEQIGILSDGSLVPCCLDTKADINLGNVFENNFDKLFRSPRIKMMKKAFEEDKRIEKLCQTCEFFKARLGD", "soluble on expression in E. coli": "not soluble"}
